Results as given in US12692303 (QYUNS THERAPEUTICS, dated 2026).

T1: IL-23 mutant L140P (human, UniProt Q9NPF7 20-189; P29460 23-328)
T1 construct: 293F cell supernatant
T1 chain 1: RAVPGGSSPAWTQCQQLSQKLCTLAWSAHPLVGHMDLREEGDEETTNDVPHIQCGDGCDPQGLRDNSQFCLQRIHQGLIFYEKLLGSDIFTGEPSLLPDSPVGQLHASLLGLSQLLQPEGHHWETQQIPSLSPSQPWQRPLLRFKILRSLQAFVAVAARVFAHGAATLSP
T1 chain 2: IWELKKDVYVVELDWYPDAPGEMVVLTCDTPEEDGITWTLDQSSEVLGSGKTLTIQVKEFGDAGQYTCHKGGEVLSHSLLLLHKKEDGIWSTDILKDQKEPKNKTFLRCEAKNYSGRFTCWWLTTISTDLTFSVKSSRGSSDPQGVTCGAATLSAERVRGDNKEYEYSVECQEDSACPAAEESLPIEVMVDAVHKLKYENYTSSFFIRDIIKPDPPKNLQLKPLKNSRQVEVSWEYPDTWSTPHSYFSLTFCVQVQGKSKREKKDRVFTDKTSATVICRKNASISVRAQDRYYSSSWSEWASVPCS

T2: IL-23 mutant F144S (human, UniProt Q9NPF7 20-189; P29460 23-328)
T2 construct: 293F cell supernatant
T2 chain 1: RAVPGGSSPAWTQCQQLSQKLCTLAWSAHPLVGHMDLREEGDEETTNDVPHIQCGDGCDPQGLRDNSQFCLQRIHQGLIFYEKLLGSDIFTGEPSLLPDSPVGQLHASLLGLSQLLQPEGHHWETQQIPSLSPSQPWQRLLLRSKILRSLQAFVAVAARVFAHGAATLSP
T2 chain 2: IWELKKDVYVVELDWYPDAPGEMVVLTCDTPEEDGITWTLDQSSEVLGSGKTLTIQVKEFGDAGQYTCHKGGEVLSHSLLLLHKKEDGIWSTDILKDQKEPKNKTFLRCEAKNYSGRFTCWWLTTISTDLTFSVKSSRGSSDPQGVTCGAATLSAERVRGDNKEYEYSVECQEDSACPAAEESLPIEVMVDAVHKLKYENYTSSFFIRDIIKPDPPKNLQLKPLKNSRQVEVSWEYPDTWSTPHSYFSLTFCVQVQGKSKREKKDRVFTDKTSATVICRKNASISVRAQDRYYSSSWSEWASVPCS

T3: IL-23 mutant W137D (human, UniProt Q9NPF7 20-189; P29460 23-328)
T3 construct: 293F cell supernatant
T3 chain 1: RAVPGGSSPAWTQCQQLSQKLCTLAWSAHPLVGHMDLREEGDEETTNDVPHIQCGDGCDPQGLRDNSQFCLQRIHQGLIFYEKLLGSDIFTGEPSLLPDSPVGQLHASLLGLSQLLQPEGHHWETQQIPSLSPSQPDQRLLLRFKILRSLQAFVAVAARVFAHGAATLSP
T3 chain 2: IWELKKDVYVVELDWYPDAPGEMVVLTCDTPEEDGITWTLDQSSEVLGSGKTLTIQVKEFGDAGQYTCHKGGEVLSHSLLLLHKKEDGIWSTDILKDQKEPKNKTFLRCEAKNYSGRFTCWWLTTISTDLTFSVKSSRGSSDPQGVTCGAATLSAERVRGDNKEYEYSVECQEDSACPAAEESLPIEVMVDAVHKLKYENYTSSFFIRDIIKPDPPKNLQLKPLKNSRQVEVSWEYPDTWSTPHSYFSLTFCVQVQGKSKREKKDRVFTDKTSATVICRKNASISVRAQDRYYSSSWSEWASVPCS

T4: IL-23 mutant R143A (human, UniProt Q9NPF7 20-189; P29460 23-328)
T4 construct: 293F cell supernatant
T4 chain 1: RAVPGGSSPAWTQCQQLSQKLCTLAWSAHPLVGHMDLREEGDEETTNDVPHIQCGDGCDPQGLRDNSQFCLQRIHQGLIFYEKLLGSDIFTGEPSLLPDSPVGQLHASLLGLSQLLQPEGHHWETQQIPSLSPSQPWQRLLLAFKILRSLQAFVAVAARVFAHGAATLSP
T4 chain 2: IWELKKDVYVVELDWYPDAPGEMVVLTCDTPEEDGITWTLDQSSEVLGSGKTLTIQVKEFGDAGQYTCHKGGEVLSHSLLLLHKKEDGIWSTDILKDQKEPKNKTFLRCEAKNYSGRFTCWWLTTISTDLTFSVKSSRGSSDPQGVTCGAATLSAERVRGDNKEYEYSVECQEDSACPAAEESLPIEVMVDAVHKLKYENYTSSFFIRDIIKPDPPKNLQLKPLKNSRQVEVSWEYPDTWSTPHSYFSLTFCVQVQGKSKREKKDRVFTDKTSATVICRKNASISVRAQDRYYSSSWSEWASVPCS

T5: IL-23 mutant W137A (human, UniProt Q9NPF7 20-189; P29460 23-328)
T5 construct: p19 mutant plasmid co-transfected with p40 plasmid into 293F cells; used as cell supernatant
T5 chain 1: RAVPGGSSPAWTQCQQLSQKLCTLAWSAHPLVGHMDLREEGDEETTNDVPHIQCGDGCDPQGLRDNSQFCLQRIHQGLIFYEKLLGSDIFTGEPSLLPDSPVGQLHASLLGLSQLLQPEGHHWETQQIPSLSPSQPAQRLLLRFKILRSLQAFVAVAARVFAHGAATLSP
T5 chain 2: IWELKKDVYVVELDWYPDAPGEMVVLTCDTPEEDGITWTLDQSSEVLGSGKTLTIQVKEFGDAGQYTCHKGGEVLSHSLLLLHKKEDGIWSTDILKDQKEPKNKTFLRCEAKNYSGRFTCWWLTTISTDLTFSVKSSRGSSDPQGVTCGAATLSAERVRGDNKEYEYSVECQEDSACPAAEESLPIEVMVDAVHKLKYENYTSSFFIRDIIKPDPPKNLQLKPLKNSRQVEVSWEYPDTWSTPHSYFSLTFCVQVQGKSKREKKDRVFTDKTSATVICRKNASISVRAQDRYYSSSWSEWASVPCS

T6: Human interleukin 23 (hIL-23) (human, UniProt Q9NPF7 20-189; P29460 23-328)
T6 sequence 1: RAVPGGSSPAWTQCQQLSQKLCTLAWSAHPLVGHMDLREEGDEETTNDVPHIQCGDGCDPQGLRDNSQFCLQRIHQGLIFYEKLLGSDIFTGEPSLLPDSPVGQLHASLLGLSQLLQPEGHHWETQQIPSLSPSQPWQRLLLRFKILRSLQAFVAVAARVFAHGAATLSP
T6 sequence 2: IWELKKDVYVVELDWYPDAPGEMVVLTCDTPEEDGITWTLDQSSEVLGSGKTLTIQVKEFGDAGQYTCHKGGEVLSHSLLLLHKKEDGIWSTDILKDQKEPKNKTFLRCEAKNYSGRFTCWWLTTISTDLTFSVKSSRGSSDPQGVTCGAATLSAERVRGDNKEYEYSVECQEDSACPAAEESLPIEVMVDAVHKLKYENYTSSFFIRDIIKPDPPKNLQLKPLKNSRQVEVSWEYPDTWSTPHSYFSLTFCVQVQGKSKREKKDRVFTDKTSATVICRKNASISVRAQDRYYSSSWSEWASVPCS

T7: IL-23-p40 (human, UniProt P29460 23-328)
T7 construct: also called p40 subunit of IL-23; IL-12/IL-23p40
T7 sequence: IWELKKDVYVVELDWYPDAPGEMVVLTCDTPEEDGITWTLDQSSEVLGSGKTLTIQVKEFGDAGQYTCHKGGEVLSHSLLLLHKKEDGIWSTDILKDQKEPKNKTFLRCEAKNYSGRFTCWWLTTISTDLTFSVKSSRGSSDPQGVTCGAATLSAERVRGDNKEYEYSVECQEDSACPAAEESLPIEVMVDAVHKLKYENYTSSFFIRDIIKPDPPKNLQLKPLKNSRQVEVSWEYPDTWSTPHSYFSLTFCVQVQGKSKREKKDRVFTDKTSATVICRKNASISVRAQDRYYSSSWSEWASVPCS

T8: Natural IL-23 (human, UniProt Q9NPF7 20-189; P29460 23-328)
T8 construct: It was detected with an anti-His antibody, so it carries a His tag
T8 sequence 1: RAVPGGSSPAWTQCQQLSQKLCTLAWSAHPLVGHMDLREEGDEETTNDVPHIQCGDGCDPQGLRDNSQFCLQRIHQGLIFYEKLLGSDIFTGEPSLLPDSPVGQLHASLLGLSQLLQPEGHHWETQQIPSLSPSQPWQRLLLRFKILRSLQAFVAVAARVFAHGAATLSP
T8 sequence 2: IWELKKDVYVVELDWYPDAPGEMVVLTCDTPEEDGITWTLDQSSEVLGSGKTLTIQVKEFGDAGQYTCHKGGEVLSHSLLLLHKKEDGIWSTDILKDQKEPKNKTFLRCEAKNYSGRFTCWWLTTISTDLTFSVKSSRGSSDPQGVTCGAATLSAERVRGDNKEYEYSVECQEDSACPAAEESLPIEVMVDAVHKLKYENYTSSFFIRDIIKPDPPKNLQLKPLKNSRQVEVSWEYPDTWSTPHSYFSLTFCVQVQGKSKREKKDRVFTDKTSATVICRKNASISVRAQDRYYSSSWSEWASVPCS


Legend:
IL-23 mutant L140P [1] = molecular target: T1, IL-23 mutant L140P; assay: binding ELISA, antibody coated at 1 µg/ml, IL-23 mutant supernatant titrated; N.D: the binding is weak, and the EC50 value is not accurate
Experimental: (§1) Mutation primers were designed through PCR method. The p19 mutant plasmid was co-transfected with p40 plasmid into 293F cells to prepare a cell supernatant containing the IL-23 mutant.
(§2) After blocking, a series of cell supernatant dilutions of IL-23 mutant diluted to a concentration ranging from 0 to 0.5 μg/ml for incubation. Then, Biotin labeled anti-His antibody and SA-HRP were added respectively for incubation, finally the substrate was added for color development, and the termination solution was added to terminate the color reaction. After termination, the ELISA plate was placed in a microplate reader to read the absorption value at 450 nm (the absorption values at 650 nm was taken as reference), and the dose effect curve was plotted and the $EC50$ value was calculated.

IL-23 mutant F144S [2] = molecular target: T2, IL-23 mutant F144S; assay: as above
Experimental: as §1, §2

IL-23 mutant W137D = molecular target: T3, IL-23 mutant W137D; assay: binding ELISA, antibody coated at 1 µg/ml, IL-23 mutant supernatant titrated, anti-His detection
Experimental: as §1, §2

IL-23 mutant R143A = molecular target: T4, IL-23 mutant R143A; assay: as above
Experimental: as §1, §2

IL-23 mutant W137A = molecular target: T5, IL-23 mutant W137A; assay: as above
Experimental: as §1, §2

[3] = molecular target: T6, Human interleukin 23 (hIL-23); assay: cell-based or functional assay
[4] = molecular target: T6, Human interleukin 23 (hIL-23); assay: SPR, Biacore T200, antibody captured on Protein A chip, IL-23 in flow, 25 °C, 1:1 model
Experimental: Commercialized Protein A chip was used to immobilize an appropriate amount of antibody by capture method, the Rmax was about 50 RU and the capture flow rate was 10 μl/min. The antigen was diluted by gradient, and the flow rate of the instrument was switched to 30 μl/min. The diluted antigen flowed through the reference channel and the channel of immobilized antibody in sequence from low to high concentration, and flowed through the buffer as negative control. The chip was regenerated with glycine at pH 1.5 after each binding and dissociation. Fitting was performed with the 1:1 binding model in the Kinetics option using the build-in software in the instrument, and the association rate constant k_a, dissociation rate constant […] and equilibrium dissociation constant K_D of the antibody were calculated.

IL-23-p40 = molecular target: T7, IL-23-p40; assay: Binding ELISA: IL-23-p40 coated at 2 ug/ml, goat anti-human IgG secondary antibody, OD450 (reference 650 nm)
Experimental: IL-23-p40 was diluted to 2 μg/ml, added to the ELISA plate, and coated overnight at 4° C. After blocking, a series of antibody dilutions diluted to a concentration ranging from 0 to 5 μg/ml and Goat-anti-human IgG secondary antibody were added respectively for incubation, finally substrate was added for color development, and the termination solution was added to terminate the color reaction. After termination, the ELISA plate was placed in a microplate reader to read the absorption value at 450 nm (the absorption value at 650 nm was taken as reference), and the dose effect curve was plotted to analyze the binding specificity of the antibody.

Natural IL-23 = molecular target: T8, Natural IL-23; assay: binding ELISA, antibody coated at 1 µg/ml, IL-23 titrated, anti-His detection
IL-23 mutant L140P [5] = molecular target: T1, IL-23 mutant L140P; assay: binding ELISA, antibody coated at 1 µg/ml, IL-23 mutant supernatant titrated, anti-His detection
Experimental: as §1, §2

IL-23 mutant F144S [6] = molecular target: T2, IL-23 mutant F144S; assay: as above
Experimental: as §1, §2

| Binder | binding result (IL-23 mutant L140P [1]) | binding result (IL-23 mutant F144S [2]) | EC50 (IL-23 mutant W137D) [µg/mL] | EC50 (IL-23 mutant R143A) [µg/mL] | EC50 (IL-23 mutant W137A) [µg/mL] | IC50, inhibition of phosphorylation of STAT3 in HEK Blue IL-23 cells induced by IL-23 [3] [ng/mL] | IC50, inhibition of release of IFN-γ from human NK cells induced by IL-23 [3] [ng/mL] | IC50, inhibition of release of IL-17A from mouse spleen cells induced by IL-23 [3] [ng/mL] | Kd [4] [nM] | koff [4] [s⁻¹] | kon [4] [M⁻¹ s⁻¹] | binding result (IL-23-p40) | EC50 (Natural IL-23) [ng/mL] | EC50 (IL-23 mutant L140P [5]) [µg/mL] | EC50 (IL-23 mutant F144S [6]) [µg/mL] |
| --- | --- | --- | --- | --- | --- | --- | --- | --- | --- | --- | --- | --- | --- | --- | --- |
| QX004N (HZD90-32) (antibody, human IgG1, kappa, V domains shown, Expressed in ExpiCHO-S cells, purified on Protein A; also called humanized clone 90#; 90VH-Hu18/90VK-Hu9) VH: EVQLVESGGGLVQPGGSLRLSCAASGFSLSNHEMSWVRQAPGKGLEWIGIITTSDTTYYATWAKGRFTISRDNSKNTLYLQMNSLRAEDTAVYYCARVDIVLLSVTSRIWGQGTLVTVSS VL: DVVMTQSPSSLSASVGDRVTITCQASQSVSTYLSWYQQKPGKAPKLLIYGASNLESGVPSRFSGSGSGTDFTLTISSLQPEDFATYYCQSGYVFAGLTFGGGTKVEIKR | binds | binds | 0.363 | 0.0034 | 0.0501 | 3.21 | 10.4 | 11.7 | 0.101 | 3.5e-05 | 366000 | no binding | 1.7 |  |  |
| Risankizumab (antibody, V domains shown) VH: QVQLVQSGAEVKKPGSSVKVSCKASGYTFTDQTIHWMRQAPGQGLEWIGYIYPRDDSPKYNENFKGKVTITADKSTSTAYMELSSLRSEDTAVYYCAIPDRSGYAWFIYWGQGTLVTVSS VL: DIQMTQSPSSLSASVGDRVTITCKASRDVAIAVAWYQQKPGKVPKLLIYWASTRHTGVPSRFSGSGSRTDFTLTISSLQPEDVADYFCHQYSSYPFTFGSGTKLEIKR |  |  | 0.0052 | 0.307 | 0.0023 |  |  |  |  |  |  |  |  | 0.0544 | 0.0101 |
